Values of other authors in patent US20230295339A1, “METHOD FOR TREATING A GD2-POSITIVE CANCER” (EUSA PHARMA (UK) LIMITED, priority 2020, published 2023).

B1: dinutuximab beta: chimeric (murine/human) anti-GD2 IgG1 monoclonal antibody produced in CHO cells (antibody, chains of the INN, looked up, V domains shown)
VH: EVQLLQSGPELEKPGASVMISCKASGSSFTGYNMNWVRQNIGKSLEWIGAIDPYYGGTSYNQKFKGRATLTVDKSSSTAYMHLKSLTSEDSAVYYCVSGMEYWGQGTSVTVSS
VL: EIVMTQSPATLSVSPGERATLSCRSSQSLVHRNGNTYLHWYLQKPGQSPKLLIHKVSNRFSGVPDRFSGSGSGTDFTLKISRVEAEDLGVYFCSQSTHVPPLTFGAGTKLELK
B2: Unituxin: chimeric anti-GD2 antibody ch14.18 produced in SP2/0 murine hybridoma cells (antibody, chains of the INN, looked up, V domains shown)
VH: B1 VH
VL: B1 VL
B3: humanized 3F8: murine anti-GD2 antibody 3F8 humanized as naxitamab (antibody, chains of the INN, looked up, V domains shown)
VH: QVQLVESGPGVVQPGRSLRISCAVSGFSVTNYGVHWVRQPPGKGLEWLGVIWAGGITNYNSAFMSRLTISKDNSKNTVYLQMNSLRAEDTAMYYCASRGGHYGYALDYWGQGTLVTVSS
VL: EIVMTQTPATLSVSAGERVTITCKASQSVSNDVTWYQQKPGQAPRLLIYSASNRYSGVPARFSGSGYGTEFTFTISSVQSEDFAVYFCQQDYSSFGQGTKLEIK

What was measured:
[1] = for Kd: read-out: apparent kD for binding to GD2

Molecule | tolerability of cumulative dose in maintenance treatment (10 days, 10 mg/m^2/day, 35-day intervals, 5 cycles, cumulative 500 mg/m^2 in 175 days) | toxicity in subsequent cycles (in vivo) | binding preference for GD2 versus the related glycan structure GQ2 [1] | binding preference for GD2 versus the related glycan structure GT2 [1] | Kd [1]
B1 | feasible and well-tolerated | decrease of dinutuximab beta toxicity in subsequent cycles |  |  | 
B2 |  |  | 1000 | > 5000 | 60 nM
B3 |  |  | 200 | 1500 | 7.7 nM
